The assay deals with Slr0058 protein from Synechocystis sp. PCC 6803, His-tagged (Synechocystis sp. PCC 6803). Briefly: SEC; Superose 6 Increase 10/300 GL on ÄKTAmicro; 100 mM KCl, 50 mM Tris-HCl pH 7.8, 5 mM MgCl2; 100 µl of Slr0058 at 0.313 mg/ml. On the technique in general: In gel filtration, larger molecules generally elute earlier.

“And” between values parts separate entries of the source, which are not always exact repeats. Equal values may be shown once.

The record followed here is PMC7203880.

Turning to “Slr0058 protein from Synechocystis sp. PCC 6803, His-tagged (natural protein)”, the stoichiometry N (as a rule, the number of molecules, sites or subunits per partner or assembly) was 2 and 3.
